Molecular target: CD20 (UniProt P11836)
Assay: cell-based or functional assay

UniProt P11836, sequence (P11836 whole entry): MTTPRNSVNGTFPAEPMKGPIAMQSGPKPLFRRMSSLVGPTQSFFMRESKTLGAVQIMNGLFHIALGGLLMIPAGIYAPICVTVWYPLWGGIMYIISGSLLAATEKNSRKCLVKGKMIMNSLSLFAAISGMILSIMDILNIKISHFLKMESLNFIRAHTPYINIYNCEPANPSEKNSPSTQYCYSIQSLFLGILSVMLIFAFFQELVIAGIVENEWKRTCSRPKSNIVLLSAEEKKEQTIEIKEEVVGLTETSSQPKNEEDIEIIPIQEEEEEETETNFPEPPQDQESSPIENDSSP

ADCC on Raji cells with NK92MI-CD16a effector cells (LDH release), EC50(ng/mL): 0.607 ng/mL | CDC on Raji cells with human serum complement (LDH release), EC50(ng/mL): 210 ng/mL
Substance: Rituximab (antibody)

Source: patent publication CN112980851A
